Test results as given in PMC4938712 (Structure (London, England : 1993), 2016).

What was measured:
[1] = target: HIV-1 Rev L64A (HIV-1) (UniProt P04618)
[2] = target: HIV-1 Rev P31A (HIV-1) (UniProt P04618); assay: AUC
[3] = target: T1, HIV-1 Rev, wild type (HIV-1), P04618; assay: AUC; details: remark: other sources report otherwise
T1 chain: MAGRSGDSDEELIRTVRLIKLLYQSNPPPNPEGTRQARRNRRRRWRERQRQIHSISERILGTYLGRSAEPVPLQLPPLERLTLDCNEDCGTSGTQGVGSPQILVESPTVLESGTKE

[4] = target: HIV-1 Rev, wild type (HIV-1, UniProt P04618); assay: crystal structure

Molecule: HIV-1 Rev L64A (from UniProt P04618 1-116) (natural protein)
- stoichiometry N [1]: 2

Molecule: HIV-1 Rev P31A (from UniProt P04618 1-116) (natural protein)
- stoichiometry N [2]: 4

B1: HIV-1 Rev, wild type, P04618 1-116 (natural protein)
chain: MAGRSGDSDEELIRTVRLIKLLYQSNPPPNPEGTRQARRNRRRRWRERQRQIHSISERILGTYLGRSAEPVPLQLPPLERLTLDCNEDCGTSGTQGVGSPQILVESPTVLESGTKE
- stoichiometry N [3]: 4

B2: anti-Rev single-chain antibody variable fragment (scFv) (scFv, V domains shown)
VH: QEQLVESGGRLVTPGTALTLTCKVSGFSLSGFWLNWVRQAPGKGLEWVGAIYRGSGSEWYASWAKGRFTISDTSTTVTLKLTSPTTEDTATYFCAADTTDNGYFTIWGPGTLVTVSS
VL: ELVMTQTPSSVSEPVGGTVTIKCQASQSISSWLSWYQQKPGQPPKLLIYDASNLASGVPSRFMGSGSGTEYTLTISGVQREDAATYYCLGGYPAASYRTAFGGGTELEII
- binding result [4]: binds
